B1: NECAB1 (parent)
chain: FSPNSPQFNVSGPGLLEEDNQWMT

Variants of: B1
Assay: protein stability index of a GFP-peptide fusion (GPS, HEK-293T) (PSI 1-6); higher = more stable
Conditions: c terminus: a fixed tail appended
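Also: lentivirally expressed fusions sorted by FACS into six bins by GFP to DsRed ratio, PSI derived from sequencing read proportions per bin multiplied by bin number.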

In order of rising protein stability index:
1. FSPNSPQWNVSGPGLLEEDNQWMT  1.43
2. FSPNSPLFNVSGPGLLEEDNQWMT  1.45
3. FSPNSPQFNVSGWGLLEEDNQWMT  1.7
4. FSPNSPYFNVSGPGLLEEDNQWMT  1.72
5. FSPNSPQFNVSWPGLLEEDNQWMT  1.74
6. FSPNSPQFNWSGPGLLEEDNQWMT  1.87
7. FSPNSPAFNVSGPGLLEEDNQWMT  1.92
8. FSPNSYQFNVSGPGLLEEDNQWMT  1.92
9. FSPNYPQFNVSGPGLLEEDNQWMT  1.94
10. FSPNSPQFNVYGPGLLEEDNQWMT  1.95
11. FSPNSPQFNVFGPGLLEEDNQWMT  2
12. FSPNSPCFNVSGPGLLEEDNQWMT  2
13. FSPNFPQFNVSGPGLLEEDNQWMT  2
14. FSPNSPMFNVSGPGLLEEDNQWMT  2.02
15. FSPNSMQFNVSGPGLLEEDNQWMT  2.03
16. FSPNSPQFNVSCPGLLEEDNQWMT  2.04
17. FSPNSPQFIVSGPGLLEEDNQWMT  2.05
18. FSPNSRQFNVSGPGLLEEDNQWMT  2.05
19. FSPNSPRFNVSGPGLLEEDNQWMT  2.07
20. FSPNSPQFVVSGPGLLEEDNQWMT  2.09
21. FSPNSPIFNVSGPGLLEEDNQWMT  2.11
22. FSPNSPQFLVSGPGLLEEDNQWMT  2.12
23. FSPNSPQFCVSGPGLLEEDNQWMT  2.13
24. FSPNSPQFNVSYPGLLEEDNQWMT  2.14
25. FSPNSHQFNVSGPGLLEEDNQWMT  2.14
26. FSPNSPQFNVMGPGLLEEDNQWMT  2.16
27. FSPNSPQFNVSFPGLLEEDNQWMT  2.21
28. FSPNSPQFHVSGPGLLEEDNQWMT  2.22
29. FSPNSPVFNVSGPGLLEEDNQWMT  2.22
30. FSPWSPQFNVSGPGLLEEDNQWMT  2.25
31. FSPNSCQFNVSGPGLLEEDNQWMT  2.26
32. FSPNSPKFNVSGPGLLEEDNQWMT  2.27
33. FSPNWPQFNVSGPGLLEEDNQWMT  2.27
34. FSPNSFQFNVSGPGLLEEDNQWMT  2.28
35. FSPNSPQFNFSGPGLLEEDNQWMT  2.28
36. FSPNSPQFNVSGFGLLEEDNQWMT  2.29
37. FSPNSPQFNVSGPILLEEDNQWMT  2.29
38. FSPNSPQFNVSGPKLLEEDNQWMT  2.3
39. FSPNSPQFRVSGPGLLEEDNQWMT  2.32
40. FSPYSPQFNVSGPGLLEEDNQWMT  2.33
41. FSPNSIQFNVSGPGLLEEDNQWMT  2.34
42. FSPNSGQFNVSGPGLLEEDNQWMT  2.34
43. FSPNSPQFNVSGPMLLEEDNQWMT  2.35
44. FSPNSPQFNVSGPFLLEEDNQWMT  2.35
45. FSPNSPQFAVSGPGLLEEDNQWMT  2.35
46. FSPNSPQFNVSGLGLLEEDNQWMT  2.39
47. FSPNSPQFWVSGPGLLEEDNQWMT  2.41
48. FSPNSPQFNVSIPGLLEEDNQWMT  2.42
49. FSPNSPQFMVSGPGLLEEDNQWMT  2.42
50. FSPNSPQFNCSGPGLLEEDNQWMT  2.42
51. FSPNSPQFNVKGPGLLEEDNQWMT  2.44
52. FSPNSPQFNVSLPGLLEEDNQWMT  2.47
53. FSPNSPQFNVSGPHLLEEDNQWMT  2.47
54. FSPNSQQFNVSGPGLLEEDNQWMT  2.48
55. FSPNSPQFNVSGCGLLEEDNQWMT  2.49
56. FSPNSPQFNVHGPGLLEEDNQWMT  2.5
57. FSPNSKQFNVSGPGLLEEDNQWMT  2.5
58. FSPNSPQFNVVGPGLLEEDNQWMT  2.51
59. FSPNSLQFNVSGPGLLEEDNQWMT  2.51
60. FSPNSPQFNVCGPGLLEEDNQWMT  2.54
61. FSPNSVQFNVSGPGLLEEDNQWMT  2.56
62. FSPNSNQFNVSGPGLLEEDNQWMT  2.56
63. FSPNSPFFNVSGPGLLEEDNQWMT  2.59
64. FSPNSPQFNVSHPGLLEEDNQWMT  2.62
65. FSPNSPQFNVSGHGLLEEDNQWMT  2.62
66. FSPNSPQFNVRGPGLLEEDNQWMT  2.62
67. FSPNSPQFNVSGPLLLEEDNQWMT  2.62
68. FSPNSPQFTVSGPGLLEEDNQWMT  2.62
69. FSPNSSQFNVSGPGLLEEDNQWMT  2.62
70. FSPNSPWFNVSGPGLLEEDNQWMT  2.64
71. FSPNSPQFNVSGMGLLEEDNQWMT  2.65
72. FSPNSPSFNVSGPGLLEEDNQWMT  2.66
73. FSPNSPQFQVSGPGLLEEDNQWMT  2.67
74. FSPNSPQFNVSRPGLLEEDNQWMT  2.7
75. FSPNSPQFNVSGKGLLEEDNQWMT  2.71
76. FSPNGPQFNVSGPGLLEEDNQWMT  2.72
77. FSPNAPQFNVSGPGLLEEDNQWMT  2.72
78. FSPNSPGFNVSGPGLLEEDNQWMT  2.74
79. FSPNSPQFNLSGPGLLEEDNQWMT  2.74
80. FSPNSPQFNVSGYGLLEEDNQWMT  2.75
81. FSPNSPQFNVSGVGLLEEDNQWMT  2.75
82. FSPNIPQFNVSGPGLLEEDNQWMT  2.75
83. FSPNVPQFNVSGPGLLEEDNQWMT  2.75
84. FSPNSPQFNVGGPGLLEEDNQWMT  2.76
85. FSPNSPQFNVSNPGLLEEDNQWMT  2.77
86. FSPNRPQFNVSGPGLLEEDNQWMT  2.78
87. FSPNSPQFNVSGRGLLEEDNQWMT  2.79
88. FSPNSPQFNVTGPGLLEEDNQWMT  2.79
89. FSPQSPQFNVSGPGLLEEDNQWMT  2.8
90. FSPRSPQFNVSGPGLLEEDNQWMT  2.82
91. FSPNSDQFNVSGPGLLEEDNQWMT  2.82
92. FSPNKPQFNVSGPGLLEEDNQWMT  2.82
93. FSPNSPQFSVSGPGLLEEDNQWMT  2.84
94. FSPNSPQFKVSGPGLLEEDNQWMT  2.84
95. FSPNSPQFNVSAPGLLEEDNQWMT  2.85
96. FSPNSPQFNVSKPGLLEEDNQWMT  2.85
97. FSPNSPQFNVSVPGLLEEDNQWMT  2.86
98. FSPNSPQFNVSPPGLLEEDNQWMT  2.86
99. FSPNSTQFNVSGPGLLEEDNQWMT  2.86
100. FSPNSPQFNVSGGGLLEEDNQWMT  2.89
101. FSPNSPQFNVSGPNLLEEDNQWMT  2.89
102. FSPSSPQFNVSGPGLLEEDNQWMT  2.89
103. FSPNSPNFNVSGPGLLEEDNQWMT  2.89
104. FSPNSPQFNTSGPGLLEEDNQWMT  2.89
105. FSPNSPQFNYSGPGLLEEDNQWMT  2.89
106. FSPNSPQFNVIGPGLLEEDNQWMT  2.9
107. FSPNSPPFNVSGPGLLEEDNQWMT  2.9
108. FSPNSPQFNVLGPGLLEEDNQWMT  2.91
109. FSPNSPQFNGSGPGLLEEDNQWMT  2.92
110. FSPNLPQFNVSGPGLLEEDNQWMT  2.93
111. FSPNSPHFNVSGPGLLEEDNQWMT  2.94
112. FSPNSPQFNKSGPGLLEEDNQWMT  2.94
113. FSPNSAQFNVSGPGLLEEDNQWMT  2.95
114. FSPNTPQFNVSGPGLLEEDNQWMT  2.98
115. FSPNCPQFNVSGPGLLEEDNQWMT  3
116. FSPNSPQFNVSGSGLLEEDNQWMT  3.02
117. FSPNSPQFNVAGPGLLEEDNQWMT  3.02
118. FSPVSPQFNVSGPGLLEEDNQWMT  3.03
119. FSPNNPQFNVSGPGLLEEDNQWMT  3.03
120. FSPNSPQFNVSQPGLLEEDNQWMT  3.04
121. FSPNSPQLNVSGPGLLEEDNQWMT  3.04
122. FSPNSPQFPVSGPGLLEEDNQWMT  3.06
123. FSPNSPQFNVQGPGLLEEDNQWMT  3.09
124. FSPNSPTFNVSGPGLLEEDNQWMT  3.09
125. FSPNSPQFNISGPGLLEEDNQWMT  3.09
126. FSPNSPQFNVSEPGLLEEDNQWMT  3.12
127. FSPNSPQFNVSGQGLLEEDNQWMT  3.12
128. FSPNSPQFNVSDPGLLEEDNQWMT  3.13
129. FSPNSPQFNVSSPGLLEEDNQWMT  3.13
130. FSPNSPQFNVSGAGLLEEDNQWMT  3.15
131. FSPNHPQFNVSGPGLLEEDNQWMT  3.16
132. FSPNSPQFNPSGPGLLEEDNQWMT  3.16
133. FSPNSPQFNVSMPGLLEEDNQWMT  3.18
134. FSPNSPQFNVPGPGLLEEDNQWMT  3.19
135. FSPNSPQFNSSGPGLLEEDNQWMT  3.19
136. FSPTSPQFNVSGPGLLEEDNQWMT  3.2
137. FSPNSPQFNVSTPGLLEEDNQWMT  3.22
138. FSPNSPQFGVSGPGLLEEDNQWMT  3.23
139. FSPNSPQINVSGPGLLEEDNQWMT  3.26
140. FSPNSPQFNVSGIGLLEEDNQWMT  3.27
141. FSPNSPQFNVWGPGLLEEDNQWMT  3.29
142. FSPNSPQFNVNGPGLLEEDNQWMT  3.31
143. FSPNSPQFNVSGTGLLEEDNQWMT  3.32
144. FSPNSPQFNVSGPCLLEEDNQWMT  3.32
145. FSPNSPQFNQSGPGLLEEDNQWMT  3.32
146. FSPNSPQFNMSGPGLLEEDNQWMT  3.33
147. FSPNSPQFNRSGPGLLEEDNQWMT  3.38
148. FSPNPPQFNVSGPGLLEEDNQWMT  3.39
149. FSPNSPQFNVEGPGLLEEDNQWMT  3.4
150. FSPNSPQCNVSGPGLLEEDNQWMT  3.42
151. FSPNSPQYNVSGPGLLEEDNQWMT  3.43
152. FSPNSPQFNVSGPALLEEDNQWMT  3.44
153. FSPNSPQFNVSGDGLLEEDNQWMT  3.46
154. FSPNSPQPNVSGPGLLEEDNQWMT  3.47
155. FSPNSPQTNVSGPGLLEEDNQWMT  3.5
156. FSPNSPQFNVSGNGLLEEDNQWMT  3.5
157. FSPNSPQFNASGPGLLEEDNQWMT  3.5
158. FSPNSPQFYVSGPGLLEEDNQWMT  3.54
159. FSPNSPQFNVSGEGLLEEDNQWMT  3.58
160. FSPNSPQFNVSGPELLEEDNQWMT  3.58
161. FSPNSPQVNVSGPGLLEEDNQWMT  3.61
162. FSPNSPQFNHSGPGLLEEDNQWMT  3.63
163. FSPNSPQRNVSGPGLLEEDNQWMT  3.65
164. FSPNSPQMNVSGPGLLEEDNQWMT  3.65
165. FSPNMPQFNVSGPGLLEEDNQWMT  3.66
166. FSPNSPQFDVSGPGLLEEDNQWMT  3.67
167. FSPNSPQFNNSGPGLLEEDNQWMT  3.68
168. FSPNQPQFNVSGPGLLEEDNQWMT  3.7
169. FSPNSPQFNVDGPGLLEEDNQWMT  3.73
170. FSPNSPQFNVSGPDLLEEDNQWMT  3.73
171. FSPNSPQHNVSGPGLLEEDNQWMT  3.77
172. FSPNSPQFEVSGPGLLEEDNQWMT  3.77
173. FSPNSPQKNVSGPGLLEEDNQWMT  3.78
174. FSPNSPQQNVSGPGLLEEDNQWMT  3.79
175. FSPNEPQFNVSGPGLLEEDNQWMT  3.82
176. FSPNSPQGNVSGPGLLEEDNQWMT  3.83
177. FSPNSPEFNVSGPGLLEEDNQWMT  3.88
178. FSPNSEQFNVSGPGLLEEDNQWMT  3.88
179. FSPNSPQSNVSGPGLLEEDNQWMT  4
180. FSPNDPQFNVSGPGLLEEDNQWMT  4.04
181. FSPNSPQFNDSGPGLLEEDNQWMT  4.09
182. FSPNSPQDNVSGPGLLEEDNQWMT  4.15
183. FSPNSPQFNESGPGLLEEDNQWMT  4.16
184. FSPNSPQANVSGPGLLEEDNQWMT  4.17
185. FSPNSPDFNVSGPGLLEEDNQWMT  4.25
186. FSPNSWQFNVSGPGLLEEDNQWMT  4.26
187. FSPNSPQNNVSGPGLLEEDNQWMT  4.29
188. FSPNSPQENVSGPGLLEEDNQWMT  4.44

Reference: the supplement of paper PMC10567573
